The values below come from the supplement of paper PMC9112550, “Optimization of the antimicrobial peptide Bac7 by deep mutational scanning” (BMC Biology, 2022).

The series concerns Escherichia coli TOP10. Description: shrunken log2 fold change of peptide-encoding DNA abundance (4.5 h post-induction vs induction); higher = less antimicrobial activity (less host growth inhibition). As to conditions: time post-induction: 4.5 h; library: site-saturation at positions 5, 18, 19, 20.
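Also: peptides expressed intracellularly from a pBAD plasmid library in pooled LB shake-flask culture, induced with 0.3% L-arabinose, DNA abundance read by NGS, three biological replicates, DESeq2 with apeglm shrinkage.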

On to RRIRVRPPRLPRPRPRPHACPRP, for which the “shrunken log2 fold change” value is 0.0734. For RRIRLRPPRLPRPRPRPSNCPRP the value was -0.581; for RRIRSRPPRLPRPRPRPHPCPRP, 0.0687; for RRIRLRPPRLPRPRPRPKAYPRP, -0.402.

Turning to RRIRERPPRLPRPRPRPTKCPRP, the “shrunken log2 fold change” value is 0.0642. For RRIRFRPPRLPRPRPRPIDRPRP the value was -0.0144; for RRIRSRPPRLPRPRPRPAKPPRP, -0.146; for RRIRQRPPRLPRPRPRPKYVPRP, 0.178. Consider RRIRNRPPRLPRPRPRPTDDPRP, for which the “shrunken log2 fold change” value was determined as 0.0875. For RRIRVRPPRLPRPRPRPLENPRP the value was 0.124; for RRIRQRPPRLPRPRPRPISLPRP, -0.527. For RRIRVRPPRLPRPRPRPFSDPRP the value was -0.263. As to RRIRNRPPRLPRPRPRPPCNPRP, the “shrunken log2 fold change” value is -0.517. As to RRIRVRPPRLPRPRPRPGHSPRP, the “shrunken log2 fold change” value is -0.195.

As to RRIRTRPPRLPRPRPRPEHCPRP, the “shrunken log2 fold change” value is -0.0755. Turning to RRIRARPPRLPRPRPRPCGIPRP, the “shrunken log2 fold change” value turned out to be 0.23. In the case of RRIRDRPPRLPRPRPRPHDCPRP, the “shrunken log2 fold change” value was -0.0662. Then RRIRARPPRLPRPRPRPRPPPRP, with 1.26; and RRIRWRPPRLPRPRPRPIHHPRP, with -0.332. For the sequence RRIRIRPPRLPRPRPRPWMPPRP, the “shrunken log2 fold change” value was -0.131. Then RRIRCRPPRLPRPRPRPMMVPRP, with -0.659; and RRIRYRPPRLPRPRPRPQNLPRP, with -0.0535. Then RRIRHRPPRLPRPRPRPTYIPRP, with -0.573. For RRIRCRPPRLPRPRPRPDCYPRP, the “shrunken log2 fold change” value was -0.0924. Then RRIRHRPPRLPRPRPRPQWNPRP, with -0.281; and RRIRFRPPRLPRPRPRPRRFPRP, with 0.0577. Then RRIRQRPPRLPRPRPRPDLFPRP, with -0.0321. For RRIRMRPPRLPRPRPRPSYGPRP the value was -0.0196; for RRIRKRPPRLPRPRPRPSWQPRP, -0.212; for RRIRIRPPRLPRPRPRPFAFPRP, -0.155. With RRIRKRPPRLPRPRPRPEAAPRP, the “shrunken log2 fold change” value worked out at 1.8. Then RRIRRRPPRLPRPRPRPTFAPRP, with 0.765. Then RRIRWRPPRLPRPRPRPPQFPRP, with -0.108.

For RRIRWRPPRLPRPRPRPQISPRP, the “shrunken log2 fold change” value is -0.22. Consider RRIRKRPPRLPRPRPRPLTQPRP, for which the “shrunken log2 fold change” value stood at 0.198. Regarding RRIRYRPPRLPRPRPRPALWPRP, the “shrunken log2 fold change” value is -0.0105. On to RRIRSRPPRLPRPRPRPNKTPRP, for which the “shrunken log2 fold change” value was -0.286. As for RRIRKRPPRLPRPRPRPCAPPRP, the “shrunken log2 fold change” value stood at 0.436. For RRIRFRPPRLPRPRPRPCHNPRP the value was -0.0447; for RRIRPRPPRLPRPRPRPLKVPRP, -0.107; for RRIRHRPPRLPRPRPRPHWKPRP, -0.337. For RRIRTRPPRLPRPRPRPGCAPRP the value was 0.515; for RRIRQRPPRLPRPRPRPHGAPRP, 0.0316; for RRIRHRPPRLPRPRPRPHWDPRP, -0.557. As to RRIRYRPPRLPRPRPRPFRAPRP, the “shrunken log2 fold change” value was -0.142. Then RRIRRRPPRLPRPRPRPDYMPRP, with -0.384. For RRIRSRPPRLPRPRPRPPQGPRP the value was 0.39. For RRIRHRPPRLPRPRPRPWMIPRP the value was -0.00164.

Take RRIRIRPPRLPRPRPRPQGCPRP: the “shrunken log2 fold change” value was -0.00156. For RRIRDRPPRLPRPRPRPYINPRP the value was -0.108; for RRIRMRPPRLPRPRPRPMSNPRP, 0.0851. For RRIRLRPPRLPRPRPRPFVSPRP the value was -0.281.

With RRIRKRPPRLPRPRPRPAGMPRP, the “shrunken log2 fold change” value was found to be 0.042. As for RRIRFRPPRLPRPRPRPEFVPRP, the “shrunken log2 fold change” value was 0.0629. Then RRIRGRPPRLPRPRPRPLPKPRP, with 0.943; and RRIRSRPPRLPRPRPRPKPLPRP, with -0.107. Then RRIRWRPPRLPRPRPRPRRIPRP, with 0.109; and RRIRNRPPRLPRPRPRPVRFPRP, with 0.0789. Then RRIRLRPPRLPRPRPRPHDCPRP, with -0.0305; and RRIRVRPPRLPRPRPRPEMVPRP, with -0.0955. RRIRCRPPRLPRPRPRPYGGPRP: the “shrunken log2 fold change” value is -0.136. Then RRIRSRPPRLPRPRPRPNNMPRP, with -0.534; and RRIRDRPPRLPRPRPRPTDNPRP, with -0.5; and RRIRARPPRLPRPRPRPVEVPRP, with 0.236.

RRIRTRPPRLPRPRPRPAMPPRP: the “shrunken log2 fold change” value came out at 0.131. RRIRCRPPRLPRPRPRPQLLPRP: the “shrunken log2 fold change” value is -0.23. Consider RRIRFRPPRLPRPRPRPYYEPRP, for which the “shrunken log2 fold change” value was -0.231. Consider RRIRFRPPRLPRPRPRPLDQPRP, for which the “shrunken log2 fold change” value was 0.0734.

As to RRIRWRPPRLPRPRPRPLMTPRP, the “shrunken log2 fold change” value was determined as 0.47. RRIRERPPRLPRPRPRPGGSPRP: the “shrunken log2 fold change” value was determined as 0.154. Take RRIRERPPRLPRPRPRPFEWPRP: the “shrunken log2 fold change” value was -0.132.

With RRIRWRPPRLPRPRPRPCDIPRP, the “shrunken log2 fold change” value is -0.143.

Regarding RRIRYRPPRLPRPRPRPAMWPRP, the “shrunken log2 fold change” value is -0.0439. Consider RRIRPRPPRLPRPRPRPPVDPRP, for which the “shrunken log2 fold change” value was determined as 0.52. For RRIRHRPPRLPRPRPRPDAVPRP the value was 0.0938. Then RRIRMRPPRLPRPRPRPYRLPRP, with -0.0977; and RRIRSRPPRLPRPRPRPVADPRP, with 0.0874. Then RRIRERPPRLPRPRPRPWSSPRP, with 9.28e-05. As for RRIRARPPRLPRPRPRPEFWPRP, the “shrunken log2 fold change” value was 1.12. For RRIRQRPPRLPRPRPRPLICPRP the value was -0.0973; for RRIRGRPPRLPRPRPRPWSIPRP, -0.108; for RRIRHRPPRLPRPRPRPGMCPRP, -0.493. Then RRIRLRPPRLPRPRPRPGGYPRP, with -0.192; and RRIRARPPRLPRPRPRPIQLPRP, with -0.0651; and RRIRCRPPRLPRPRPRPVENPRP, with 0.112.

As for RRIRQRPPRLPRPRPRPWCLPRP, the “shrunken log2 fold change” value was -0.275. For RRIRFRPPRLPRPRPRPGWNPRP the value was 0.0411. Turning to RRIRNRPPRLPRPRPRPEMDPRP, the “shrunken log2 fold change” value came to 0.294. For the sequence RRIRIRPPRLPRPRPRPHHTPRP, the “shrunken log2 fold change” value is -0.677. RRIRPRPPRLPRPRPRPGWNPRP: the “shrunken log2 fold change” value is -0.055. Then RRIRIRPPRLPRPRPRPDQYPRP, with -0.0181; and RRIRWRPPRLPRPRPRPYIEPRP, with -0.629; and RRIRTRPPRLPRPRPRPYKVPRP, with -1.32. For RRIRDRPPRLPRPRPRPCHEPRP the value was -0.0135; for RRIRYRPPRLPRPRPRPVLAPRP, -0.037; for RRIRNRPPRLPRPRPRPNTVPRP, -0.409.

On to RRIRKRPPRLPRPRPRPHEPPRP, for which the “shrunken log2 fold change” value came out at 0.0467.

For RRIRSRPPRLPRPRPRPYELPRP, the “shrunken log2 fold change” value is 0.093. For the sequence RRIRCRPPRLPRPRPRPPQSPRP, the “shrunken log2 fold change” value is 0.839. For RRIRGRPPRLPRPRPRPCEPPRP the value was 0.241; for RRIRQRPPRLPRPRPRPETCPRP, 0.0408.

For the sequence RRIRDRPPRLPRPRPRPNVKPRP, the “shrunken log2 fold change” value is -0.631. For RRIRNRPPRLPRPRPRPVASPRP the value was -0.0843; for RRIRGRPPRLPRPRPRPLENPRP, 0.766. RRIRCRPPRLPRPRPRPCLRPRP: the “shrunken log2 fold change” value is -0.229. Take RRIRHRPPRLPRPRPRPCDIPRP: the “shrunken log2 fold change” value is -0.0274. As to RRIRTRPPRLPRPRPRPCKEPRP, the “shrunken log2 fold change” value is -0.00136.

Consider RRIRTRPPRLPRPRPRPLAEPRP, for which the “shrunken log2 fold change” value is 0.107.

Take RRIRCRPPRLPRPRPRPMVIPRP: the “shrunken log2 fold change” value is -0.373. Regarding RRIRGRPPRLPRPRPRPSYTPRP, the “shrunken log2 fold change” value was found to be 0.307. For RRIRNRPPRLPRPRPRPINWPRP the value was -0.133. For RRIRTRPPRLPRPRPRPLLPPRP the value was 0.112; for RRIRYRPPRLPRPRPRPTEPPRP, -0.131; for RRIRSRPPRLPRPRPRPLIYPRP, -0.546.

As to RRIRWRPPRLPRPRPRPHFYPRP, the “shrunken log2 fold change” value is -0.117.

RRIRCRPPRLPRPRPRPFPTPRP: the “shrunken log2 fold change” value is -0.249. For RRIRKRPPRLPRPRPRPRFRPRP the value was 0.276; for RRIRVRPPRLPRPRPRPYNRPRP, -0.0579; for RRIRPRPPRLPRPRPRPCALPRP, -0.0401. In the case of RRIRSRPPRLPRPRPRPIQSPRP, the “shrunken log2 fold change” value is -0.0288. For RRIRQRPPRLPRPRPRPWMQPRP the value was -0.062. For RRIRCRPPRLPRPRPRPIAHPRP the value was -0.0801. For RRIRWRPPRLPRPRPRPKLEPRP the value was 0.808; for RRIRNRPPRLPRPRPRPEHVPRP, -0.0119. With RRIRKRPPRLPRPRPRPAHCPRP, the “shrunken log2 fold change” value is -0.0571.
